Experimental findings from paper PMC4381330, “Identification of a novel selective agonist of PPARγ with no promotion of adipogenesis and less inhibition of osteoblastogenesis” (Scientific Reports, 2015) are described below.

In experiment [1] the target is GST-fused human PPARγ-LBD (human). The experiment in a line: AlphaScreen or HTRF; LanthaScreen TR-FRET coregulator peptide assay; serial concentrations of rosiglitazone with GST-PPARγ-LBD, terbium-labeled anti-GST antibody and fluorescein-labeled peptide, 4 h; 520 nm/495 nm ratio. A general note: In Alpha technology, singlet oxygen from a donor bead excites a nearby acceptor bead.

Experiment [2] shares this target. Description: AlphaScreen or HTRF; LanthaScreen TR-FRET coregulator peptide assay; serial concentrations of F12016 with GST-PPARγ-LBD, terbium-labeled anti-GST antibody and fluorescein-labeled peptide, 4 h; coactivator data as percent of the maximum of rosiglitazone.

With “CREB-binding protein (CBP) peptide, fluorescein-labeled”, the efficacy (maximum recruitment, % of rosiglitazone), with rosiglitazone in experiment [1] came to 100%. The substance further showed an efficacy (maximum recruitment, % of rosiglitazone), with F12016 in experiment [2] of 10%.

For “steroid receptor coactivator (SRC) 1 peptide, fluorescein-labeled”, the efficacy (maximum recruitment, % of rosiglitazone), with rosiglitazone in experiment [1] amounted to 100%. For the same substance, the efficacy (maximum recruitment, % of rosiglitazone), with F12016 in experiment [2] is 26%.

For “steroid receptor coactivator (SRC) 3 peptide, fluorescein-labeled”, the efficacy (maximum recruitment, % of rosiglitazone), with rosiglitazone in experiment [1] is 100%. For the same substance, the efficacy (maximum recruitment, % of rosiglitazone), with F12016 in experiment [2] is 23%.

For the substance “transcriptional intermediary factor 2 (TIF2) peptide, fluorescein-labeled”, the efficacy (maximum recruitment, % of rosiglitazone), with rosiglitazone in experiment [1] came to 100%. Moreover, the efficacy (maximum recruitment, % of rosiglitazone), with F12016 in experiment [2] stood at 17%.
